B1: library; numbered along this chain (parent)
chain: MRKPRAAVGSGHRKQAASQEGRQKHAKNNSQAKPSACDGLARQPEEVVLQASVSSYHLFRDVAEVTAFRGSLLSWYDQEKRDLPWRRRAEDEMDLDRRAYAVWVSEVMLQQTQVATVINYYTGWMQKWPTLQDLASASLEEVNQLWAGLGYYSRGRRLQEGARKVVEELGGHMPRTAETLQQLLPGVGRYTAGAIASIAFGQATGVVDGNVARVLCRVRAIGADPSSTLVSQQLWGLAQQLVDPARPGDFNQAAMELGATVCTPQRPLCSQCPVESLCRARQRVEQEQLLASGSLSGSPDVEECAPNTGQCHLCLPPSEPWDQTLGVVNFPRKASRKPPREESSATCVLEQPGALGAQILLVQRPNSGLLAGLWEFPSVTWEPSEQLQRKALLQELQRWAGPLPATHLRHLGEVVHTFSHIKLTYQVYGLALEGQTPVTTVPPGARWLTQEEFHTAAVSTAMKKVFRVYQGQQPGTCMGSKRSQVSSPCSRKKPRMGQQVLDNFFRSHISTDAHSLNSAAQ

Variants of: B1
Experiment: 8OG:A repair function score (normalized; synonymous = 0, nonsense = -1) (normalized log-likelihood score); higher = more repair activity (WT-like)
Conditions: with 8OG:A DNA repair reporter (GFP) in HEK-293 MUTYH KO cells
Experimental: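 Saturation mutagenesis (NNN codon scan) of the MUTYH cDNA (521-aa nuclear isoform NM_001048174.1 / NP_001041639), stably expressed under doxycycline induction in HEK-293 MUTYH knockout cells. Cells were co-transfected with an 8OG:A-bearing GFP repair reporter plus mCherry and sorted 72 h later into GFP+ and GFP− bins, three replicates per tile. The Rosace log2 enrichment (GFP+ vs GFP−) was converted per tile to a normalized function score with synonymous variants centered at 0 and nonsense variants (codons 1-471) at -1; low-abundance variants were removed.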

Variant	8OG:A repair function score
MRKPRAAVGSGHRKQAASQEGRQKHAKNNSQAKPSACDGLARQPEEVVLQASVSFYHLFRDVAEVTAFRGSLLSWYDQEKRDLPWRRRAEDEMDLDRRAYAVWVSEVMLQQTQVATVINYYTGWMQKWPTLQDLASASLEEVNQLWAGLGYYSRGRRLQEGARKVVEELGGHMPRTAETLQQLLPGVGRYTAGAIASIAFGQATGVVDGNVARVLCRVRAIGADPSSTLVSQQLWGLAQQLVDPARPGDFNQAAMELGATVCTPQRPLCSQCPVESLCRARQRVEQEQLLASGSLSGSPDVEECAPNTGQCHLCLPPSEPWDQTLGVVNFPRKASRKPPREESSATCVLEQPGALGAQILLVQRPNSGLLAGLWEFPSVTWEPSEQLQRKALLQELQRWAGPLPATHLRHLGEVVHTFSHIKLTYQVYGLALEGQTPVTTVPPGARWLTQEEFHTAAVSTAMKKVFRVYQGQQPGTCMGSKRSQVSSPCSRKKPRMGQQVLDNFFRSHISTDAHSLNSAAQ [S55F]	-0.000223
MRKPRAAVGSGHRKQAASQEGRQKHAKNNSQAKPSACDGLARQPEEVVLQASVSSYHLFRDVAEVTAFRGSLLSWYDQEKRDLPWRRRAEDEMDLDRRAYAVWVSEVMLQQTQVATVINYYTGWMQKWPTLQDLASASLEEVNQLWAGLGYYSRGRRLQEGARKVVEELGGHMPRTAETLQQLLPGVGRYTAGAIASIAFGQATGVVDGNVARVLCRVRAIGADPSSTLVSQQLWGLAQQLVDPARPGDFNQAAMELGATVCTPQRPLCSRCPVESLCRARQRVEQEQLLASGSLSGSPDVEECAPNTGQCHLCLPPSEPWDQTLGVVNFPRKASRKPPREESSATCVLEQPGALGAQILLVQRPNSGLLAGLWEFPSVTWEPSEQLQRKALLQELQRWAGPLPATHLRHLGEVVHTFSHIKLTYQVYGLALEGQTPVTTVPPGARWLTQEEFHTAAVSTAMKKVFRVYQGQQPGTCMGSKRSQVSSPCSRKKPRMGQQVLDNFFRSHISTDAHSLNSAAQ [Q271R]	0.0206
MRKPRAAVGSGHRKQAASQEGRQKHAKNNSQAKPSACDGLARQPEEVVLQASVSSYHLFRDVAEVTAFRGSLLSWYDQEKRDLPWRRRAEDEMDLDRRAYAVWVSEVMLQQTQVATVINYYTGWMQKWPTLQDLASASLEEVNQLWAGLGYYSRGRRLQEGARKVVEELGGHMPRTAETLQQLLPGVGRYTAGAIASIAFGQATGVVDGNVARVLCRVRAIGADPSSTLVSQQLWGLAQQLVDPARPGDFNQAAMELGATVCTPQRPLCSQCPVESLCRARQRVEQEQLLAQGSLSGSPDVEECAPNTGQCHLCLPPSEPWDQTLGVVNFPRKASRKPPREESSATCVLEQPGALGAQILLVQRPNSGLLAGLWEFPSVTWEPSEQLQRKALLQELQRWAGPLPATHLRHLGEVVHTFSHIKLTYQVYGLALEGQTPVTTVPPGARWLTQEEFHTAAVSTAMKKVFRVYQGQQPGTCMGSKRSQVSSPCSRKKPRMGQQVLDNFFRSHISTDAHSLNSAAQ [S292Q]	-0.0703
MRKPRAAVGSGHRKQAASQEGRQKHAKNNSQAKPSACDGLARQPEEVVLQASVSSYHLFRDVAEVTAFRGSLLSWYHQEKRDLPWRRRAEDEMDLDRRAYAVWVSEVMLQQTQVATVINYYTGWMQKWPTLQDLASASLEEVNQLWAGLGYYSRGRRLQEGARKVVEELGGHMPRTAETLQQLLPGVGRYTAGAIASIAFGQATGVVDGNVARVLCRVRAIGADPSSTLVSQQLWGLAQQLVDPARPGDFNQAAMELGATVCTPQRPLCSQCPVESLCRARQRVEQEQLLASGSLSGSPDVEECAPNTGQCHLCLPPSEPWDQTLGVVNFPRKASRKPPREESSATCVLEQPGALGAQILLVQRPNSGLLAGLWEFPSVTWEPSEQLQRKALLQELQRWAGPLPATHLRHLGEVVHTFSHIKLTYQVYGLALEGQTPVTTVPPGARWLTQEEFHTAAVSTAMKKVFRVYQGQQPGTCMGSKRSQVSSPCSRKKPRMGQQVLDNFFRSHISTDAHSLNSAAQ [D77H]	-0.228
MRKPRAAVGSGHRKQAASQEGRQKHAKNNSQAKPSACDGLARQPEEVVLQASVSSYHLFRDVAEVTAFRGSLLSWYDQEKRDLPWRRRAEDEMDLDRRAYAVWVSEVMLQQTQVATVINYYTGWMQKWPTLQDLASASLEEVNQLWAGLGYYSRGRRLQEGARKVVEELGGHMPRTAETLQQLLPGVGRYTAGAIASIAFGHATGVVDGNVARVLCRVRAIGADPSSTLVSQQLWGLAQQLVDPARPGDFNQAAMELGATVCTPQRPLCSQCPVESLCRARQRVEQEQLLASGSLSGSPDVEECAPNTGQCHLCLPPSEPWDQTLGVVNFPRKASRKPPREESSATCVLEQPGALGAQILLVQRPNSGLLAGLWEFPSVTWEPSEQLQRKALLQELQRWAGPLPATHLRHLGEVVHTFSHIKLTYQVYGLALEGQTPVTTVPPGARWLTQEEFHTAAVSTAMKKVFRVYQGQQPGTCMGSKRSQVSSPCSRKKPRMGQQVLDNFFRSHISTDAHSLNSAAQ [Q202H]	-0.0825
MRKPRAAVGSGHRKQAASQEGRQKHAKNNSQAKPSACDGLARQPEEVVLQASVSSYHLFRDVAEVTAFRGSLLSWYDQEKRDLPWRRRAEDEMDLDRRAYAVWVSEVMLQQTQVATVINYYTGWMQKWPTLQDLASASLEEVNQLWAGLGYYSRGRRLQEGARKVVEELGGHMPRTAETLQQLLPGVGRYTAGAIASIAFGQATGVVDGNVARVLCRVRAIGADPSSTLVSQQLWGLAQQLVDPARPGDFNQAAMELGATVCTPQRPLCSQCPVESLCRARQRVEQEQLLASGSLSGSPDVEECAPNTGQCHLCLPPSEPWDQTLGVVNFPRKASRKPPREESSATCVLEQPGALGAQILLVQRPNSGLLAGLWEFPSVTWEPSEQLQRKALLQELQRWAGPLPATHLRHLGEVVHTFSHIKLTYQVYGLALEGQTPVTTVPPGARWLTQEEFHTAAVSTAMKKVFRVYQGQQPGTCMGSKRSQVSSPCSRKKPRMGQQVLDNFFRSHIRTDAHSLNSAAQ [S510R]	0.00127
MRKPRAAVGSGHRKQAASQEGRQKHAKNNSQAKPSACDGLARQPEEVVLQASVSSYHLFRDVAEVTAFRGSLLSWYDQEKRDLPWRRRAEDEMDLDRRAYAVWVSEVMLQQTQVATVINYYTGWMQKWPTLQDLASASLEEVNQLWAGLGYYSRGRRLQEGARKVVEELGGHMPRTAETLQQLLPGVGRYTAGAIASIRFGQATGVVDGNVARVLCRVRAIGADPSSTLVSQQLWGLAQQLVDPARPGDFNQAAMELGATVCTPQRPLCSQCPVESLCRARQRVEQEQLLASGSLSGSPDVEECAPNTGQCHLCLPPSEPWDQTLGVVNFPRKASRKPPREESSATCVLEQPGALGAQILLVQRPNSGLLAGLWEFPSVTWEPSEQLQRKALLQELQRWAGPLPATHLRHLGEVVHTFSHIKLTYQVYGLALEGQTPVTTVPPGARWLTQEEFHTAAVSTAMKKVFRVYQGQQPGTCMGSKRSQVSSPCSRKKPRMGQQVLDNFFRSHISTDAHSLNSAAQ [A199R]	-1.16
MRKPRAAVGSGHRKQAASQEGRQKHAKNNSQAKPSACDGLARQPEEVVLQASVSSYHLFRDVAEVTAFRGSLLSWYDQEKRDLPWRRRAEDEMDLDRRAYAVWVSEVMLQQTQVATVINYYTGWMQKWPTLQDLASASLEEVNQLWAGLGYYSRGRRLQEGARKVVEELGGHMPRTAETLQQLLPGVGRYTAGAIASIAFGQATGVVDGNVARVLCRVRAIGADPSSTLVSQQLWGLAQQLVDPARPGDFNQAAMELGATVCTPQRPLCSQCPVESLCRARQRVEQEQLLASGSLSGSPDVEECAPNTGQCHLCLPPSEPWDQTLGVVNFPRKASRKPPREESSATCVLEQPGALGAQILLVQRPNSGLLAGLWEFPSVTWEPSEQLQRKALLQELQRWAGPLPATHLRHLGEVVHTFSHIKLTYQVYNLALEGQTPVTTVPPGARWLTQEEFHTAAVSTAMKKVFRVYQGQQPGTCMGSKRSQVSSPCSRKKPRMGQQVLDNFFRSHISTDAHSLNSAAQ [G429N]	-0.133
MRKPRAAVGSGHRKQAASQEGRQKHAKNNSQAKPSACDGLARQPEEVVLQASVSSYHLFRDVAEVTAFRGSLLSWYDQEKRDLPWRRRAEDEMDLDRRAYAVWVSEVMLQQTQVATVINYYTGWMQKWPTLQDLASASLEEVNQLWAGLGYYSRGRRLQEGARKVVEELGGHMPRTAETLQQLLPGVGRYTAGAIASIAFGQATGVVDGNVARVLCRVRAIGADPSSTLVSQQLWGLAQQLVDPARPGDFNQAAMELGATVCTPQRPLCSQCPVESLCRARQRVEQEQLLASGSLSGSPDVEECAPNTGQCHLCLPPSEPWDQTVGVVNFPRKASRKPPREESSATCVLEQPGALGAQILLVQRPNSGLLAGLWEFPSVTWEPSEQLQRKALLQELQRWAGPLPATHLRHLGEVVHTFSHIKLTYQVYGLALEGQTPVTTVPPGARWLTQEEFHTAAVSTAMKKVFRVYQGQQPGTCMGSKRSQVSSPCSRKKPRMGQQVLDNFFRSHISTDAHSLNSAAQ [L325V]	-0.142
MRKPRAAVGSGHRKQAASQEGRQKHAKNNSQAKPSACDGLARQPEEVVLQASVSSYHLFRDVAEVTAFRGSLLSWYDQEKRDLPWRRRAEDEMDLDRRAYAVWVSEVMLQQTQVATVINYYTGWMQKWPTLQDLASASLEEVNQLWAGLGYYSRGRRLQEGARKVVEELGGHMPRTAETLQQLLPGVGRYTAGAIASIAFGQATGVVDGNVARVLCRVRAIGADPSSTLVSQQLWGLAQQLVDPARPGDFNQAAMELGATVCTPQRPLCSQCPVESLCRARQRVEQEQLLASGSLSGSPDVEECAPNTGQCHLCLPPSEPWDQTLGVVNFPRKASRKPPREESSATCVLEQPGALGAQILLVQRPNSGLLAGLWEFPSVTWEPSEQLQRKALLQELQRWAGPLPATHLRHLGEVVHTFSHIKLTYQVYGLALEGQTPVTTVPPGARWLTQEEFHTAAVSTAMKKVERVYQGQQPGTCMGSKRSQVSSPCSRKKPRMGQQVLDNFFRSHISTDAHSLNSAAQ [F466E]	-0.52
MRKPRAAVGSGHRKQAASQEGRQKHAKNNSQAKPSACDGLARQPEEVVLQASVSSYHLFRDVAEVTAFRGSLLSWYDQEKRDLPWRRRAEDEMDLDRRAYAVWVSEVMLQQTQVATVINYYTGWMQKWPTLQDLASASLEEVNQLWAGLGYYSRGRRLQEGARKVVEELGGHMPRTAETLQQLLPGVGRYTAGAIASIAFGQATGVVDGNVARVLCRVRAIGADPSSTLVSQQLWGLAQQLVDPARPGDFNQAAMELGATVCTPQRPLCSQCPVESLCRARQRVEQEQLLASGSLSGSPDVEECAPNTGQCHLCLPPSEPWDQTLGVVNFPRKASRKPPREESSATCVLEQPGALGAQILLVQRPNSGLLAGLWEFPSVTWEPSEQLQRKALLQELQRWAGPLPATHLRHLGEVVHTFSHIKLTYQVYGLALEGQTPVTTVPPGARWLTQEEFHTAAVSTAMKKVFRVYQGQQPGTCYGSKRSQVSSPCSRKKPRMGQQVLDNFFRSHISTDAHSLNSAAQ [M478Y]	0.0167
MRKPRAAVGSGHRKQAASQEGRQKHAKNNSQAKPSACDGLARQPEEVVLQASVSSYHLFRDVAEVTAFRGSLLSWYDQEKRDLPWRRRAEDEMDLDRRAYAVWVSEVMLQQTQVATVINYYTGWMQKWPTLQDLASASLEEVNQLWAGLGYYSRGRRLQEGARKVVEELGGHMPRTAETLQQLLPGVGRYTAGAIASIAFGQATGVVDKNVARVLCRVRAIGADPSSTLVSQQLWGLAQQLVDPARPGDFNQAAMELGATVCTPQRPLCSQCPVESLCRARQRVEQEQLLASGSLSGSPDVEECAPNTGQCHLCLPPSEPWDQTLGVVNFPRKASRKPPREESSATCVLEQPGALGAQILLVQRPNSGLLAGLWEFPSVTWEPSEQLQRKALLQELQRWAGPLPATHLRHLGEVVHTFSHIKLTYQVYGLALEGQTPVTTVPPGARWLTQEEFHTAAVSTAMKKVFRVYQGQQPGTCMGSKRSQVSSPCSRKKPRMGQQVLDNFFRSHISTDAHSLNSAAQ [G209K]	-0.788

Source: the supplement of paper PMC11908140
